Results reported in publication PMC3526264, “The C-terminus of Dpb2 is required for interaction with Pol2 and for cell viability” (Nucleic Acids Research, 2012).

Biological target: T1, Pol2 (S. cerevisiae, UniProt P21951 1-2222)
T1 construct: Pol2, catalytic subunit of DNA polymerase epsilon, S. cerevisiae; over-expression vector pJL1; also called catalytic subunit of DNA polymerase ε; source: S. cerevisiae pY116, galactose-induced over-expression (pJL1), co-expressed with the other Pol ε subunits
T1 sequence (P21951 whole entry): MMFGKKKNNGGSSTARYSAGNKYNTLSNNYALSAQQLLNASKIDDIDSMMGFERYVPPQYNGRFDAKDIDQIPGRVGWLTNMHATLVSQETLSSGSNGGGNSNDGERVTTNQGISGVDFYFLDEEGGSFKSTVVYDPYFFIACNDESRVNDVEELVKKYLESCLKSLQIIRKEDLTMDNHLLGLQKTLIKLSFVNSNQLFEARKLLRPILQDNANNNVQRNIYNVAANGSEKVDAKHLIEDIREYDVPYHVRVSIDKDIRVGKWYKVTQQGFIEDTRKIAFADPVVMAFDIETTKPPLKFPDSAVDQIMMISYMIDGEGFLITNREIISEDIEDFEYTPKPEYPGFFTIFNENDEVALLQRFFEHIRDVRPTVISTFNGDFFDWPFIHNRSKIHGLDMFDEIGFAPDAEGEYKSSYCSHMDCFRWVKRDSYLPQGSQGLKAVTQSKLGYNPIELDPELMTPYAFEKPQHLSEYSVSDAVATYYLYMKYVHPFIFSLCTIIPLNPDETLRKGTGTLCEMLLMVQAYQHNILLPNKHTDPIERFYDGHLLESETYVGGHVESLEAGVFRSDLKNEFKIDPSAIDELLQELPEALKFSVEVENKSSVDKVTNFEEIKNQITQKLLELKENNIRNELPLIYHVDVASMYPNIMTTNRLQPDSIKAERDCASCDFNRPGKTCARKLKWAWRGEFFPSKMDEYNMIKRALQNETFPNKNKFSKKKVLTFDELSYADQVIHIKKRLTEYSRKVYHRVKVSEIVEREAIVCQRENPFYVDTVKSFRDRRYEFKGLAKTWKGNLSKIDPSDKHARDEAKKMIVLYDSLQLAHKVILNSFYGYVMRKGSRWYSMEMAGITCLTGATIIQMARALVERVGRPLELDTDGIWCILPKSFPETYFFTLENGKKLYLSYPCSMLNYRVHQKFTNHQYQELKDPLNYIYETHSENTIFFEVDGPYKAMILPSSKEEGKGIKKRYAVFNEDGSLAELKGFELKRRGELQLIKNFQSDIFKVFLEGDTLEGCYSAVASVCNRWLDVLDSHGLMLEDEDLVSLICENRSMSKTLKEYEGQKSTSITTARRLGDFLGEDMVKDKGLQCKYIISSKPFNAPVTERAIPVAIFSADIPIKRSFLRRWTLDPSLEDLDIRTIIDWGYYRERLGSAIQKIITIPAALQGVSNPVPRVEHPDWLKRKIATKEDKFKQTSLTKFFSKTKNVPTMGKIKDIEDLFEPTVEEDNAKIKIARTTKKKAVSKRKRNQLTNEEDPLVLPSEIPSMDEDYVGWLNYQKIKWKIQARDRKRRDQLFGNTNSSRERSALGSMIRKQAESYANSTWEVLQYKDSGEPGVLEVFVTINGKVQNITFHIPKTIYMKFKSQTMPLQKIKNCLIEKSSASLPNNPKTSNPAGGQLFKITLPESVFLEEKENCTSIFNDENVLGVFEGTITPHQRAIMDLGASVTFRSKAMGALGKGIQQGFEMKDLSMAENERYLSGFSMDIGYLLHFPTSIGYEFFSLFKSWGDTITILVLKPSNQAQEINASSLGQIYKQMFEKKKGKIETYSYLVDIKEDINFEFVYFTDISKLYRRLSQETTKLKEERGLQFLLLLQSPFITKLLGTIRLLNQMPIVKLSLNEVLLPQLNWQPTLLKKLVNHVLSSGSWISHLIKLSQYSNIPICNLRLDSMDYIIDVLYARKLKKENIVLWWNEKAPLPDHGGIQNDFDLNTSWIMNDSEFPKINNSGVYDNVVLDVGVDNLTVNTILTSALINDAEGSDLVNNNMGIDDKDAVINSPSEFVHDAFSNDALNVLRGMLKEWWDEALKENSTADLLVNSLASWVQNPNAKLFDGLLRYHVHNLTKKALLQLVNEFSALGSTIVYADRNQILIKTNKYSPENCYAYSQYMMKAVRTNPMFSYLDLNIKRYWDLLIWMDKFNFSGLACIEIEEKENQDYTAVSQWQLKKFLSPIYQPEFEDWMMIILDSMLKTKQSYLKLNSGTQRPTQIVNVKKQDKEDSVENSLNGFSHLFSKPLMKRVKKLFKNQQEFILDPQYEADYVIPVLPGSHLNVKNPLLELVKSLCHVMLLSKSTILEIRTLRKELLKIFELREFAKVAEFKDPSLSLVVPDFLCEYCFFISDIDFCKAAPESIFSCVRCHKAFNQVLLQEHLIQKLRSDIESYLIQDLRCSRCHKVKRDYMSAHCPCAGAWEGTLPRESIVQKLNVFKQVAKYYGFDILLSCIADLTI
Assay: co-purification (ion-exchange and size-exclusion chromatography); Pol2, Dpb2-201, Dpb3 and Dpb4 co-over-expressed in S. cerevisiae pY116; Pol ε purification protocol as in ref. 23; Coomassie-stained 10% SDS-PAGE, band intensities measured
Details: partners not purified

| Binder | stoichiometry N |
| --- | --- |
| Dpb3 (natural protein, S. cerevisiae, UniProt P27344 1-201, looked up, Dpb3, subunit of DNA polymerase epsilon, S. cerevisiae; over-expression vector pJL5 (Dpb3 and Dpb4); source: S. cerevisiae pY116, galactose-induced over-expression (pJL5), co-expressed with the other Pol ε subunits) MSNLVKEKAPVFPISKVKKIAKCDPEYVITSNVAISATAFAAELFVQNLVEESLVLAQLNSKGKTSLRLSLNSIEECVEKRDNFRFLEDAIKQLKKNSALDKKRELNMQPGRSDQEVVIEEPELHEDDGVEEEEEEDEVSEEEEPVHNEELLDDSKDQQNDKSTRSVASLLSRFQYKSALDVGEHSDSSDIEVDHTKSTDP | ~1.1 Dpb3 per Pol2 |
| Dpb4 (natural protein, S. cerevisiae, UniProt Q04603 1-196, looked up, Dpb4, subunit of DNA polymerase epsilon, S. cerevisiae; over-expression vector pJL5 (Dpb3 and Dpb4); source: S. cerevisiae pY116, galactose-induced over-expression (pJL5), co-expressed with the other Pol ε subunits) MPPKGWRKDAQGNYPTTSYIKEQENITIQDLLFPKSTIVNLAREVPQQSGKKLLINKDASLALQRGATVFVNHLLLFAREIAKSQDKKSCSVDDVLSALDHIGHSALKGPVRDKLDEYQAAVEQRKKEKLDSGEVDADGDIDMGEDKENVPVEKVKEHDEIEEQGDALQDVEESSEKKQKTESQDVETRVQNLEQT | ~1.4 Dpb4 per Pol2 |
